70 sequences from the domain aggregation screens of Martell et al. (2025) can be followed below.
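Also: 20 min heating vs room temperature control held 20 min.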

The data set can be described thus: soluble fraction after stress (log2 fold change); higher = more stays soluble; pooled small domains, quantitative proteomics. Conditions: stress: 75 degC.
As to “HMARTLSVTVSENYANMRLDSFLFESGLYPSRSKAVKQIESGKVFVNGNEPTKKTIVVANDFIVYEEYAEE”, the “soluble fraction (log2)” value is -2.63.
The result for “HMARTTIATPWDKINDLLQGGLGNGDFGLIFGNPGGGKSWSLVALGGFAVKLGYNVIHYTLE” reads -0.0148; that for “HMASAEDDLTRRARKLLTTSSMLKTLQPDTGERLQWLPQVVRLLAEGVEAPRIVVLIRRAMESG”, -1.26; that for “HMASALDFGRYVRSQYSLQEFPLILIAPLNDPHPKEVVRELFNLYLTKPITRSRLFDSLMTVLG”, -0.74.
The result for “HMASDQGAGALREVSAFFEKHGRVPDPDAVDHDEMRLGSIWASIKSAPTDQMRLEDRFGLLD” reads 0.135; that for “HMASDYYTTTANLNLRSGAGTTYGSLIIIEKGDTVKLLENVNDHWVKIQYDDKIGYVAMSYLLPIE”, -1.31; that for “HMASEKSEQLYQQMKLDIAGMPPDTRLPSIRALMRSYSVSQLLIDRTLGRLREEGALRKRFDGLYTYL”, -2.42.
With “HMASELQQVQALLESQRYNEALILIETTIGKGASESTELLFARADVFASSGRHDEAEQAYREL”, the “soluble fraction (log2)” value is -0.145.
The result for “HMASELVSADEKYSGLVSYLLGRVVVVDQIDHAIALAKKYRYSLRIVTLDGELLSPGGSMTGGAFKNS” reads 0.169; that for “HMASEVEVPNVYGMPSSLAERELSAVGLLADYRSRTGTGQQPGTVVHVKPDAGTVVSRGSTVVLFIA”, -0.334; that for “HMASFASRAEEVMTKLLANGQPRIKEVADAMHLSSRTLQRRLEREGVSFAELLDRLRKRLAHDMLAHS”, -1.51.
With “HMASFGDLSGLKRTYPPQGLPDASRIADFLIARNEGDLSVEQVKALERFLFEHPDHERTARLVAATRVPA”, the “soluble fraction (log2)” value was -0.0446.
Next, “HMASFTDAQALEVKDLYPDWSKIPEGTHLEAGQRVRYNGNLYKVRTGQAHDKQSTWTPTDAASLFEAID”: 0.185.
Next, “HMASIEPLKTSIRIIWYINGEKDSETLLNTPPTAANKANAQKIADMVEQQIQMGIFNRDAVFPSSPKRQ”: -1.75; “HMASIGVGTIVRVANAVNYNGVKVKAWFNDEGYEVTELSGDRAVLKHNGDLFDAFHVSDLEA”: -1.42; “HMASINRIENKNGKVVYRIIVSLGYDKQGKKLKKTITYNVNQTATKKQQENEALKYALDIEDKIKNGHD”: -1.99.
The result for “HMASITLDQAKEIALTHAGQTADAVWFEKAEQDYDDGILVYELEFAAKGTEYEYEIDAQTGAIREYKWDD” reads 0.238; that for “HMASLSEREHDVAVLILQGKTYAEIGQAIFISPRTVEHHVASIRRRLEAKSRSDLIAKLRLTIGGTED”, -2.68; that for “HMASPTKQLVLEALRASGQPMSSMELSAQIGVSRATAQRYLSTLASAGEVKIQLRYGTTGRPEQEFLAIE”, -1.64.
For the sequence “HMASQFSLIVTQADAGMRLDSLLAVSGAYPSRSAAVKQIEAGKVLVNGLARSKRSIVAPGDTIVYEEIP”, the “soluble fraction (log2)” value is -0.981.
On to “HMASQVERGAVVVTDQRIFFIGVSSEGIEVHGTKIFGMSEKAPLYSHMKGLKKGDSFQFNGLKYVIQDIY”, for which the “soluble fraction (log2)” value is -3.57.
Next, “HMASRKTERINRLIDVLQHATSRVPASVLSKILGIGERSVRNYVSEVNEQGQFRIDSSSGGYRLVA”: -0.492.
For the sequence “HMASRTLSYSEFMSRVDSGDVTSVTLDGERIIMRTSNNQEFLSIKPEGEDISERLLAKNIEVRAEAQQ”, the “soluble fraction (log2)” value was -0.321.
The result for “HMASVGTHIKRLRAAKRMTQEELAEQLHVTRQAVSAWETGKALPDVEMLERIAAALDADVTEVIYGA” reads -0.346; that for “HMATAATGIINNNYVNVRSGPATTYNIVGRLDQGSSIEILGSKNDWYQIKTKQLNGWVKNDFINLQK”, -0.283.
Next, “HMATETELNLQLMRIIDELHTDHNTWGSRKITDYLRLQGYEINRKRIQRLMDVMDIQVVYPK”: -2.07.
On to “HMATEVEVPDVVGRQMALATQLLEARKLRVNVAEIYDEKTPPGQVVSQSPEAGSSVKEERVVTIYVSR”, for which the “soluble fraction (log2)” value is -0.154.
Regarding “HMATGGKIYIGMNDNGKVVGVSDADKLLEDIPNKVRDVLGIIVDVNLLEENGLKYIEIDVPPYSN”, the “soluble fraction (log2)” value was -0.698.
Consider “HMATGIKAVDNVFGWMNLEQVAKTVGLDIPSVLRASGLPEDTPVDISIKKIPGVDDEELKDSLRQYIEKS”, for which the “soluble fraction (log2)” value was -0.107.
Regarding “HMATGTVKWFNPNKGFGFIQQDDASKDVFVHSNELNGVYINEGDKVEFDVVETEKGLSAQNIKK”, the “soluble fraction (log2)” value amounted to 0.222.
Consider “HMATHGRRAVIELREKIVSGELPGGTRLFEVSLAETLDISRTPVREALSRLAEEGLLDRLPNGGFVVRR”, for which the “soluble fraction (log2)” value is -1.18.
The result for “HMATIGVGSKVTLTTYVDWVGNGLLKTRDFYFVSELNGKRAVLRADSMNGAIYAAVNIDNLRI” reads -3.66; that for “HMATINGIEKYLSSGLIPGIGPHTAKKLVEKFGLDTLDIMQYNPDRLTEVEGIGDKKAAKISEAFQEQK”, 0.00381; that for “HMATKVNSGVTVRDLAELLGLSSADLIKKLMTMGEMATLTQTLTDDSVKAIADEYDRKIEIVSAAQ”, 0.536.
The result for “HMATLTPLGRLQLARYHAQERATLAATAERFQVSTTTVRRWVGRYHQVVAAGGRPTTADMQDRPSRP” reads -2.07; that for “HMATMSIDERILEIRSRAGLTQQEMADRLFVTRQAVSRWERGETVPGIDTLRLIAEAFDVRVDQILEL”, -1.66; that for “HMATQMSSARRGIATDEMKQVAKDEDVTLDWLLPKIAIGSIIIPSNNVRPQKIHNVGIGKGMKTKVN”, 0.195.
On to “HMATTTEPTSPPAATASLEAKINWLFLIFRNKKTVTASEQKFHAEDASTVVGKETLTDDGTTMTKGETAAG”, for which the “soluble fraction (log2)” value was -0.0674.
The result for “HMATVELELKPEELRAGMILTKDLISGTGMMLLNKGVTLDNVKVEAIQRYYQLDPPLHGVFALVHGK” reads -1.32.
With “HMATVGENIRRYRKAQNLSAAKLAEKVGLTQGAILHYERGIRTPGISQLEKIAHALNVSPRM”, the “soluble fraction (log2)” value is -0.144.
The result for “HMATVPNVVGLSEEKAKSRLANNGLNVSVTTEEVSDKSKDGIVSSQTSEGDTVKQGATITITVGKYVEK” reads 0.111; that for “HMATYDIDALKVDLPSAKELAQFVYDKTDGLVSLDLIGKPKEEQYIVAKNALEGKKVPAEYLTGFNPY”, 0.702.
Next, “HMATYTPYDKQGAKLWRVTAYLGMDSVTGKQRNMKKGGFKTKKEAQLYYNQVKLDFENGTLDQ”: -1.36.
Next, “HMAVEQLKSQIGGFLKANREQSFSAQNMADGLRMNSAAGYQDVVNAMNALVRDGEAVEKDGQFSYNVN”: 0.116.
As for “HMAVETYRVKKSDTMQTIADRFGLSVEELLEYNQAYKTRELRARDILIIPSRKERKKLQQQKAQAAAQVVQ”, the “soluble fraction (log2)” value is -0.632.
Next, “HMAVGTASNLIGKDIEAYAPIDGSQSSDDTKTISGKVESVHIKDGVVYMNVKDSQSENIIEVEYGALIKVN”: 0.251; “HMAVKPIDRLRSLMAESNVTDAELQKVVADKGHYAADAPIDSYSEKFISGWLIKYWSQILNLINADRTVL”: -0.691; “HMAVKTEHGRIWKALPEGQDGYREDVPMFTSKSMYDGSAGIGIFLIRLYEATSDERWLKEAEEAAAHII”: 0.157.
The result for “HMAVLEGPAGKLGIVRFEANRSFTGMGHERFSSADQAFGTKPAAVVASRLFATGQVAGVHVYGNIITVELA” reads 0.632.
Turning to “HMAVNDPDEKFIELGIPADWVQVVRKAGFQTVEALKTVENPNKLHQELSGLNKKMKLGLKTLSQDEVKDWF”, the “soluble fraction (log2)” value was 0.0688.
Consider “HMAVPMTPGELVGSRVRVLWWKDGRGEVVALARGHQATLPARSEEPLRTGADAVVLEADEGTLVVTS”, for which the “soluble fraction (log2)” value was -0.13.
The result for “HMAVSGRMMVYEYIRQQMREGSLLPGSVLDLPAISHKLGISNTPLRDSLIRLEAEGYLTIYPRSKVVIN” reads -3.03.
As for “HMAVTGRVDLRIKPWGYVSVDGAAKVSSPPTMQLKLAPGRHEIEITNPAGAAVTKTVDVIAGKSVTVQHN”, the “soluble fraction (log2)” value was -0.0874.
Next, “HMAVTKVKVITESSNLNIRKGPGTDQPIVGKAAHHEIITLVNKSNDQWWLVRTNDGEEGYSYSRYLEPVT”: -0.667; “HMAVVEVATTTATEYKVEKGHHFKVGDFVMFKTGAKSYAITAIDTTSPIFDKITVGTTLGEAIPVGGTLM”: -1.62; “HMAVVIPDVKGMTIEEAAPFLAEKGIRYNIIDSVFSKDVDPGAIVEIVPTPGSKVKEGRIVFVTINAK”: -0.774.
As to “HMAVVQMVDRPGGLDELLKDVVRAGVNFANAYGRTASDGNSAFFVIDIQDIPGARQKLADVGLQILADEAV”, the “soluble fraction (log2)” value was -0.383.
Next, “HMAWAVDVGVVGLFPGKAVLVIDGGAPRTVPVGANVGGVRLLAVDQGSATVEIGGKRQRLAIGQHAH”: -1.69; “HMAWIGEHTVTSEDTLSHIALKFYGHATPPYYKLIYEANKAIIGDNMNIIVPGQVLRIPALPEEL”: -1.35; “HMAYLTVPAVIAKDTKKSIQLLESKGFEVVIQDSIYTDTLARGTVIKQLPDPNATVKINRTVYLTVNRYTP”: -2.41.
For the sequence “HMAYQQITIKANVVNVRQGPGLSYDVMSQANKGETMNVISQKNNWYQVRLSGDKIGWVASWLVDNT”, the “soluble fraction (log2)” value is -3.08.
Next, “HMAYWVVKNNQVSLQINRSNYQITSTARALSNGNLGDEIDVKVLQSGVIKKAVVIGKGQVELLR”: -3.24; “HMDAHIGTLTPRERETLHHLAIGHSNKVIAKKLNLAESTVKAYVQSILRKLGLSSRVQAAVYAIQHDIR”: -0.702.
Next, “HMDAIDPKTVTSWADLWKPEYKSSLLLTDDAREVFQMALRKLGYSGNTTDPKEIEAAYNELKKLMPNVAAF”: -0.193; “HMDAIDQDGNHMTFKRWGEQLQEAFQALEAYDTDKAKTILNELIKFPIDSDLNNALKGILSNIDEMMA”: -0.914.
The result for “HMDAINITTYKGQITLTGTKTGTLVGIYNTAGMLVKSMMSKGEKLYFDNLPSGVYIIKVGEEEPRKVQVI” reads -2.16.
As for “HMDAKIEYTMSDLIENRLINSDDASMRREKLSEILKIGYGNGKKTLHKLNSFGITREEFEEAMKEVNSH”, the “soluble fraction (log2)” value came to 0.0731.
On to “HMDAKIKDYADAYAKMDPQQAASLFNNMTTGSLDLVAKILENIPANKRAAILEKMDVNAAAQVTEKMR”, for which the “soluble fraction (log2)” value is -0.0156.
The result for “HMDAKSRFQEWVQAETGITPTYRIIGDSGPDHAKTFIAQVLLGERVVGEGVGSSKRAAEQAAAQAALAAM” reads -0.0803; that for “HMDAMMQRLERLKELASSADGSKDYLILGPLRRDLAKLMALEDPKLRQGAEELDRKILAILS”, -0.477.
